Measurements taken from PMC5405413, “The plant cell-wall enzyme AtXTH3 catalyses covalent cross-linking between cellulose and cello-oligosaccharide” (Scientific Reports, 2017).

What was measured:
AtXTH22 = target: T1, AtXTH22 (Arabidopsis thaliana, UniProt Q38857); assay: transglycosylation, size-exclusion chromatography with fluorescence detection; type: biochemical; conditions: 25 μM acceptor; donor tamarind xyloglucan 2 mg/mL; 50 mM sodium acetate pH 6.0, 30 °C, 24 h; labelled compound
T1 construct: gene XTH22
T1 sequence (Q38857 22-284): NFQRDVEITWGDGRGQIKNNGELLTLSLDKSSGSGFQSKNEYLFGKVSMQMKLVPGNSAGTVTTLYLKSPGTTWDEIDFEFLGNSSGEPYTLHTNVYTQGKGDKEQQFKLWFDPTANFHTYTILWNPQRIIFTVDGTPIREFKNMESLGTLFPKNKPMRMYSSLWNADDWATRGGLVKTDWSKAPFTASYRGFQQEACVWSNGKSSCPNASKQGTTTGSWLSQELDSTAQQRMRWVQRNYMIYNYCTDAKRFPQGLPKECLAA

[1] = substrate: OC[C@@H](O)[C@@H](O[C@@H]1O[C@H](CO)[C@@H](O[C@@H]2O[C@H](CO)[C@@H](O[C@@H]3O[C@H](CO)[C@@H](O)[C@H](O)[C@H]3O)[C@H](O)[C@H]2O)[C@H](O)[C@H]1O)[C@H](O)[C@@H](O)CNc1ccccn1; assay: transglycosylation, fluorescent product by anion-exchange LC after cellulase digestion; type: biochemical, Arabidopsis thaliana; conditions: acceptor, donor amorphous cellulose, 50 mM sodium acetate pH 5.0, 30 °C, 6 h, labelled compound
Description: (§1) transglycosylation, fluorescent product by anion-exchange LC after cellulase digestion on AtXTH3 | Michaelis constant (KM) and turnover number (kcat) for acceptor oligosaccharides (left: GGGG-AP; right: XXXG-AP)

[2] = substrate: OC[C@@H](O)[C@@H](O[C@@H]1O[C@H](CO[C@H]2OC[C@@H](O)[C@H](O)[C@H]2O)[C@@H](O[C@@H]2O[C@H](CO[C@H]3OC[C@@H](O)[C@H](O)[C@H]3O)[C@@H](O[C@@H]3O[C@H](CO[C@H]4OC[C@@H](O)[C@H](O)[C@H]4O)[C@@H](O)[C@H](O)[C@H]3O)[C@H](O)[C@H]2O)[C@H](O)[C@H]1O)[C@H](O)[C@@H](O)CNc1ccccn1; assay: as above; type: biochemical, Arabidopsis thaliana; conditions: acceptor, donor amorphous cellulose, 50 mM sodium acetate pH 5.0, 30 °C, 6 h, labelled compound
Description: as §1

OC[C@@H](O)[C@@H](O[C@@H]1O[C@H](CO[C@H]2OC[C@@H](O)[C@H](O)[C@H]2O)[C@@H](O[C@@H]2O[C@H](CO[C@H]3OC[C@@H](O)[C@H](O)[C@H]3O)[C@@H](O[C@@H]3O[C@H](CO[C@H]4OC[C@@H](O)[C@H](O)[C@H]4O)[C@@H](O)[C@H](O)[C@H]3O)[C@H](O)[C@H]2O)[C@H](O)[C@H]1O)[C@H](O)[C@@H](O)CNc1ccccn1 [XXXG-AP, aminopyridyl xyloglucan-heptasaccharide]
transglycosylation, size-exclusion chromatography with fluorescence detection (AtXTH22): AtXTH22 almost exclusively transferred xyloglucans to xyloglucan oligosaccharides

B1: AtXTH3 (Arabidopsis thaliana) (protein)
chain: RVFGGRGIEKFVTFGQNYIVTWGQSHVSTLHSGEEVDLYMDQSSGGGFESKDAYGSGLFEMRIKVPSGNTGGIVTAFYLTSKGGGHDEIDFEFLGNNNGKPVTLQTNLFLNGEGNREERFLLWFNPTKHYHTYGLLWNPYQIVFYVDNIPIRVYKNENGVSYPSKPMQVEASLWNGDDWATDGGRTKVNWSYSPFIAHFRDFALSGCNIDGRSNNVGACESSNYWWNAGNYQRLSGNEQKLYEHVRSKYMNYDYCTDRSKYQTPPRECY
Km [1]: 58.8 ± 8.4 µM
kcat [1]: 8.0 ± 0.5 x10^-5 sec^-1
Km [2]: 8.6 ± 2.3 µM
kcat [2]: 9.0 ± 1.0 x10^-5 sec^-1
